The results in this text go back to paper PMC60004 (BMC Biochemistry, 2001).

Experiment [1] addresses Bombyx mori aminopeptidase N, native, 115-kDa (115-120 kDa) Cry1Aa-binding receptor (Bombyx mori (endogenous in larval …)). As to the kind of experiment: SPR. A general note: SPR reads the build-up and loss of mass on a sensor chip optically.
The target of experiment [2] is Bombyx mori cadherin-like receptor BtR175, native, 175 kDa (Bombyx mori (endogenous in larval …)). As to the kind of experiment: SPR.

B1: Bacillus thuringiensis Cry1Aa toxin (trypsin-activated, wild type) (domain or fragment)
chain: not shown
In experiment [1], B1 had a Kd of 75 nM, a koff of 0.0015 s⁻¹ and a kon of 20000 M⁻¹ s⁻¹. In experiment [2], this molecule returned a Kd of 2.6 nM, a koff of 3.3e-05 s⁻¹ and an on-rate (kon) of 13000 ± 6.1 M⁻¹ s⁻¹.

The Kd is the free concentration of one partner at which half of the binding sites on the other are occupied at equilibrium, for simple one-to-one binding. Read a low Kd as a tighter complex. For orientation: koff means a measure of how fast the partners let go of each other. The kon is the second-order rate constant of association. A higher kon goes with fast association.
